Results on 12 molecules are retold here after patent US20260116921A1, “PEPTIDE INHIBITORS OF INTERLEUKIN-23 RECEPTOR AND THEIR USE TO TREAT INFLAMMATORY DISEASES” (priority 2018, published 2026).

Numbered stars: 1 amine (or outer) side, 2 acyl side, 3 side chain; on linkers, the order of the positions; unused ones are H or OH. Bridge positions count the residues as written; N and C are the ends. Square brackets hold non-standard residues; d marks the D form. Trp(7-nPr) = CCCc1cccc2c(C[C@H](N[*:1])C(=O)[*:2])c[nH]c12; Trp(7-Me) = Cc1cccc2c(C[C@H](N)C(=O)O)c[nH]c12; 2Nal = N[C@@H](Cc1ccc2ccccc2c1)C(=O)O; AEF = NCCOc1ccc(C[C@H](N)C(=O)O)cc1; Cit = NC(=O)NCCC[C@H](N)C(=O)O; αMeL = CC(C)C[C@](C)(N)C(=O)O; Pen = CC(C)(S)[C@H](N)C(=O)O; αMeK = C[C@](N)(CCCCN)C(=O)O; Aib = CC(C)(N)C(=O)O; βAla = NCCC(=O)O

Test [1] has as its target T1, IL-23R (human, UniProt Q5VWK5 24-629).
T1 sequence (looked up): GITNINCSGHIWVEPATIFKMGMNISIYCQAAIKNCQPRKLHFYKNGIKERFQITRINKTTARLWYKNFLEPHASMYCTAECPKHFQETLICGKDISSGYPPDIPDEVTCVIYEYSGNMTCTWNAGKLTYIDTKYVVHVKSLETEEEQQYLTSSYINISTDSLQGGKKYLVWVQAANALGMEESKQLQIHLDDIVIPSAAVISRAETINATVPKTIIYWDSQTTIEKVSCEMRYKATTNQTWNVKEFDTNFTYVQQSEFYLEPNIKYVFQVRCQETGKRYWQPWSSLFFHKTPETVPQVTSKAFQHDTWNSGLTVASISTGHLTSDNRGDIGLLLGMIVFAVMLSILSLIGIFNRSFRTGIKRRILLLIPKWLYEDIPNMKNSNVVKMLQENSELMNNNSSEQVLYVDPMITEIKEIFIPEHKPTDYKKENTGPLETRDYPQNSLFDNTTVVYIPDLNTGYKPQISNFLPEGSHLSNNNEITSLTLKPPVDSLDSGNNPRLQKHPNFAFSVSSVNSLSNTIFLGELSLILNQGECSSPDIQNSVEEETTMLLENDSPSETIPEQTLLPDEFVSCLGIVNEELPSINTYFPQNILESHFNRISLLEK
In words: cell-based or functional assay.

Test [2] deals with T1, IL-23R. In words: cell-based or functional assay. This is another data set of the same source.

B1: SEQ ID NO: 278 (peptide)
peptide: XNTXQXXXXKNX
modifications: Ac-[Pen]-N-T-[W(7-Me)]-Q-[Pen]-Phe[4-(2-aminoethoxy)]-[2-Nal]-[a-MeOrn]-[Lys(Ac)]-N-[bA]-NH2; Pen-Pen disulfide
For the molecule B1, the “NK Cell Assay (nM) IC50” value with IL-23R [1] was below 10 nM. The “pStat3 HTRF (nM) IC50” value in the test with IL-23R [2] was below 1 nM.

B2: SEQ ID NO: 282 (peptide)
peptide: XNTXQXXXXENX
modifications: Ac-[Pen]-N-T-[W(7-Me)]-Q-[Pen]-Phe[4-(2-aminoethoxy)]-[2-Nal]-[a-MeLys]-E-N-[bA]-NH2; Pen-Pen disulfide
Turning to B2, the “NK Cell Assay (nM) IC50” value with IL-23R [1] was below 10 nM.

B3: SEQ ID NO: 273 (peptide)
peptide: XNTXKXXXXEXX
modifications: Ac-[Pen]-N-T-[W(7-Me)]-[Lys(Ac)]-[Pen]-Phe[4-(2-aminoethoxy)]-[2-Nal]-[a-MeLys]-E-[bA]-[bA]-NH2; Pen-Pen disulfide
Turning to B3, the “NK Cell Assay (nM) IC50” value with IL-23R [1] was below 10 nM.

B4: SEQ ID NO: 201 (peptide)
peptide: XNTXQXXXXKNX
modifications: Ac-[Pen]-NT-[W(7-Me)]-Q-[Pen]-Phe[4-(2-aminoethoxy)]-[2-Nal]-[a-MeLeu]-[Lys(Ac)]-N-[bA]-NH2; Pen-Pen disulfide
Turning to B4, in the test with IL-23R [1], the “NK Cell Assay (nM) IC50” value was below 10 nM. The “pStat3 HTRF (nM) IC50” value in the test with IL-23R [2] is below 1 nM.

B5: SEQ ID NO: 252 (peptide)
peptide: XNTXKXXXXKNK
modifications: Ac-[Pen]-NT-[W(7-Me)]-[Lys(Ac)]-[Pen]-Phe[4-(2-aminoethoxy)]-[2-Nal]-[a-MeLys]-[Lys(Ac)]-N-[(D)Lys]-NH2; Pen-Pen disulfide
In the case of B5, in the test with IL-23R [1], the “NK Cell Assay (nM) IC50” value is below 10 nM. Also, the “pStat3 HTRF (nM) IC50” value with IL-23R [2] is below 1 nM.

In the case of Ac-[Pen]NT[Trp(7-Me)][Cit][Pen][AEF][2Nal][αMeK]K(Ac)N[dY]-NH2 (disulfide 1-6 (inferred)) [SEQ ID NO: 259], the “NK Cell Assay (nM) IC50” value with IL-23R [1] was below 10 nM. The “pStat3 HTRF (nM) IC50” value in the test with IL-23R [2] was below 1 nM.

Turning to Ac-[Pen]NT[Trp(7-nPr)]K(Ac)[Pen][AEF][2Nal][αMeK]K(Ac)N[dL]-NH2 (disulfide 1-6 (inferred)) [SEQ ID NO: 285], the “NK Cell Assay (nM) IC50” value with IL-23R [1] is below 10 nM. Besides, in the test with IL-23R [2], the “pStat3 HTRF (nM) IC50” value is below 1 nM.

In the case of Ac-[Pen]NT[Trp(7-Me)][Cit][Pen][AEF][2Nal][αMeL]K(Ac)N[βAla]-NH2 (disulfide 1-6) [SEQ ID NO: 227], the “NK Cell Assay (nM) IC50” value with IL-23R [1] is below 10 nM. Besides, the “pStat3 HTRF (nM) IC50” value with IL-23R [2] is below 1 nM.

Regarding Ac-[Pen]NT[Trp(7-Me)]K(Ac)[Pen][2Nal][2Nal][αMeK]K(Ac)N[dL]-NH2 (disulfide 1-6 (inferred)) [SEQ ID NO: 289], the “NK Cell Assay (nM) IC50” value with IL-23R [1] is below 10 nM.

Ac-[Pen]NT[Trp(7-Me)][Cit][Pen][AEF][2Nal][αMeK]K(Ac)N[Aib]-NH2 (disulfide 1-6 (inferred)) [SEQ ID NO: 264]: the “NK Cell Assay (nM) IC50” value with IL-23R [1] was below 10 nM. Further, the “pStat3 HTRF (nM) IC50” value with IL-23R [2] was below 1 nM.

B6: SEQ ID NO: 223 (peptide)
peptide: XNTXQXXXXKXX
modifications: Ac-[Pen]-NT-[W(7-Me)]-Q-[Pen]-Phe[4-(2-aminoethoxy)]-[2-Nal]-[a-MeLeu]-[Lys(Ac)]-[N-MeAla]-[bA]-NH2; Pen-Pen disulfide
For B6, in the test with IL-23R [1], the “NK Cell Assay (nM) IC50” value was below 10 nM. Further, in the test with IL-23R [2], the “pStat3 HTRF (nM) IC50” value is above 100 nM.

B7: SEQ ID NO: 242 (peptide)
peptide: XNTXKXXXXKNX
modifications: Ac-[Pen]-NT-[W(7-Me)]-[Lys(Ac)]-[Pen]-Phe[4-(2-aminoethoxy)]-[2-Nal]-[a-MeLys]-[Lys(Ac)]-N-[bA]-NH2; Pen-Pen disulfide
As to B7, the “NK Cell Assay (nM) IC50” value in the test with IL-23R [1] was below 10 nM. The “pStat3 HTRF (nM) IC50” value in the test with IL-23R [2] is below 1 nM.
